Experimental data reported in US20060252716A1, “Method for reversing the immunosuppressive effects of the melanoma inhibitory activity "mia"” (priority 2000, published 2006).

Key:
[1] = system: MIA; assay: Inhibition of MIA expression by antisense sequences; type: cell-based, human
[2] = system: LAK cytotoxicity against malignant glioma cell lines (HTZ-17, -243, -374, -375); assay: CARE-LASS calcein-release assay, effector cells pretreated with MIA; type: cell-based
Description: To study the effects of MIA upon cytotoxic T-lymphocytes (CTL) and Lymphokine Activated Killer cells (LAK cells) a CARE-LASS assay has been employed (Lichtenfels, R., Biddison, W. E., Schulz, H., Vogt, A. B. and R. Martin. CARE-LASS (calcein-release assay), an improved fluorescence based test system to measure cytotoxic lymphocyte activity J. Immunol. Meth., 172: 227-239, 1994). Briefly, glioma cells were harvested, washed in 5% FCS/PBS solution and resuspended at 10 Mio cells/ml in 5% FCS/FBS. Calcein-AM was added to a final concentration of 25 μM (Molecular Probes, USA). The cells were labeled for 30 min at 37° C. then washed twice in 5%/FCS/PBS, adjusted to 1 Mio cells/ml and loaded into 96-well U-shaped microtiter plates at the final concentration of 0.1 Mio/100 μL/1 well (Nunc, Denmark). To measure cytotoxic activity of effector cells pretreated with MIA (f.c. 500 ng/ml), wells were loaded with 100 μL of CTL and LAK cells to produce the desired E:T ratios of […]. […] After incubating the plate for 4 h at 37° C. the supernatants (50 μL) were transferred into new wells and measured using an automated fluorescence scanner (Titertek Fluoroskan II, Germany). The percent cytotoxicity was determined from the following equation: [formula]

[3] = system: cells; settings: cited from earlier work
[4] = system: Peripheral Blood Mononuclear Cells (PBMCs); settings: addition of MIA; cited from earlier work
[5] = system: malignant melanoma cell; settings: cited from earlier work
[6] = system: human MIA-secreting melanoma as well as breast cancer cell lines; assay: Tumor invasion and metastasis in scid-mice and nude mice; type: in vivo; settings: transfecting vector expressing the antisense sequence
Description: Inhibition of endogenous MIA synthesis by a transfecting vector expressing the antisense sequence (SEQ. ID No 9): […]

MIA-0202-N: MIA antisense sequence ATG GTG AGG AAT CG
inhibiting MIA expression [1]: Less active or inactive

MIA-1277-N: MIA antisense sequence GAA TGG TCA GGA ATG G
inhibiting MIA expression [1]: Less active or inactive

MIA-1278-W: MIA antisense sequence CTT GGA GAA GAG ATA C
inhibiting MIA expression [1]: Active

MIA-2841-W: MIA antisense sequence GTC AGG AAT CGG GAG
inhibiting MIA expression [1]: Active

MIA-2842-W: MIA antisense sequence TGC CTC CCC AGA AG (antisense TGCCTCCCCAGAAG; all phosphorothioate, sugars by position and methylation of C not given here; listed as Homo sapiens)
inhibiting MIA expression [1]: Active

B1: MIA: polypeptide Melanoma Inhibitory Activity; 131-amino acid precursor processed into a mature 107-amino acid protein (protein, UniProt Q16674 25-131, looked up)
Melanoma-derived growth …: GPMPKLADRKLCADQECSHPISMAVALQDYMAPDCRFLTIHRGQVVYVFSKLKGRGRLFWGGSVQGDYYGDLAARLGYFPSSIVREDQTLKPGKVDVKTDKWDFYCQ
inhibition of autologous and allogenic LAK cytotoxicity compared to controls ([2]; MIA f.c. 500 ng/ml, E:T ratios 1:10 and 1:100, 4 h): up to 40%
Allogenic anti-glioma LAK immune response ([2]; exogenous addition of MIA): strongly inhibited
inhibits cell proliferation (cell cycle effect) [3]: prolonging of the S-Phase and arrest of the cells in the G2 compartment
IL-2-stimulated PBMC proliferation [4]: only slightly inhibited
tumor cell growth inhibition [5]: potent tumor cell growth inhibitor

B2: SEQ. ID No 9: long MIA antisense sequence, or parts of it, expressed from a transfecting vector (nucleic acid, listed as Homo sapiens)
antisense: GGCAGGGCCAGCGGTAGGCTGAGCTCACTGGCAGTAGAAATCCCATTTGTCTGTCTTCACATCGACTTTGCCAGGTTTCAGGGTCTGGTCCTCTCGGACAATGCTACTGGGGAAATAGCCCAGGCGAGCAGCCAGATCTCCATAGTAATCTCCCTGAACGCTGCCTCCCCAGAAGAGCCGCCCACGGCCCTTCAGCTTGGAGAAGACATACACCACTTGGCCCCGGTGAATGGTCAGGAATCGGCAGTCGGGGGCCATGTAGTCCTGAAGGGCCACAGCCATGGAGATAGGGTGGCTGCACTCCTGGTCCGCACACAGCTTCCGGTCAGCCAGCTTGGGCATAGGACCACCCCTGACACCAGGTCCGGAGAAGGCAGACAGCAAGATGATGACACCAAGGCACACCAGGGACCGGGCCATCGTGGACTGTGAGCAAGAGAGTGAGCAAGGGGGTGCTGG
modifications: expressed from transfecting vector
tumor invasion and metastasis [6]: strongly reduced
